Assay results as given in the supplement of paper PMC10567573.

B1: RHOBTB1 (parent)
chain: TFGDHHKDRRFAYGRSDVVVLCFS
B2: ANKRD17 (parent)
chain: EVLRRLTSSVSCALDEAAAALTRM

Variants of: B1
Assay: protein stability index of a GFP-peptide fusion (GPS, HEK-293T) (PSI 1-6); higher = more stable
Conditions: c terminus: a fixed tail appended
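Note: lentivirally expressed fusions sorted by FACS into six bins by GFP to DsRed ratio, PSI derived from sequencing read proportions per bin multiplied by bin number.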

Protein stability index, by site and new letter:
V20: N 2.56; K 1.73; L 2.42; C 1.51; F 2.54; G 2.05; H 1.62; S 1.95; A 3.28; P 2.61; E 2.7; Y 1.75; M 1.44; T 1.68; Q 1.7; R 1.97; D 2.62
V19: W 1.37; Y 2.45
F23: R 2.38; H 2.6; L 1.42; Y 2.22; N 3.08; P 2.16; D 3.1; C 2.41; M 2.59; T 1.68; I 1.41; W 1.81; E 3.12; S 1.66; K 2.25; G 2.47
S24: H 2.98; G 2.54; Y 4.57; V 2.3; E 2.05; R 2.95; T 2.16; P 1.48; C 3.85; D 1.66; F 2.84; N 1.65
L21: T 2.14; N 2.44; R 1.96; K 2.34; I 1.49; V 2.86; D 2.68; G 2.23; E 2.79; P 2.56; H 1.9; M 2.78; S 2.15; Q 2.4; F 2.07; W 2.3; A 1.62; C 1.85
C22: D 2.32; N 2.23; A 1.72; G 2.21; M 2.88; Y 1.07; S 1.94; F 3.21; E 2.2; W 2.73; K 2.17; V 3.33; P 2.21; T 1.3; Q 2.2; L 2.42

Variants of: B2
Assay: as above
Conditions: c terminus: a fixed tail appended

Protein stability index, by site and new letter:
R5: F 1.68; N 2.35; W 1.02; K 4.55; M 2.05; T 1; L 1.59; G 2.1; P 2.02; D 3.56; S 2.18; H 2.23
E16: K 1.54; A 2.32; T 1.88; S 2.96; N 3; Y 2.43; R 2.09; D 1.72; L 3.18; I 1.97; C 2.46; V 1.6; F 3.12; Q 2.56; H 1.8
S9: I 1.97; M 2.49; Y 1.58; E 1.47; T 1.66; R 2.69; C 1.87; N 1.81; Q 2.21; P 1.94; A 2.11; D 1.65; W 2.63; G 1.64; F 2.38
L14: Q 2.48; H 2.13; F 1.23; S 2.72; R 1.57; A 2.23; C 2.2; N 2.11; P 1.93; Y 2.27; M 2.81; W 1.81; V 1.77; T 2.77; K 1.79; I 2.22; E 3.61; D 1.94
A17: V 2.32; S 2.16; C 2.59; Y 2.49; D 1.46; E 2.24; L 2.34; I 2.26; F 2.03; T 2.13; M 1.85
E1: G 2.73; H 2.67; C 1.94; D 1.97; V 2.42; K 2.28; P 2.48; T 2.08; L 1.8; R 3.12; Y 2.22; I 1.89; S 2.2; A 2.07; M 1.38; F 1.73; Q 3.07
D15: H 1.97; C 1.99; P 2.37; R 1.85; M 3.36; E 2.2; G 1.26; A 1.35; N 3.18; Q 1.87
A18: F 1.94; D 1.89; E 1.24
R4: T 2.1; E 1.42; I 1.04; W 1.07; P 2.15; Y 2.34; G 2.19; S 1.05; F 1.03; C 1.74; Q 1.57
S8: H 2.09; Y 1.99; N 2.49; W 3.21; A 1.68; V 2.27; F 4.21; Q 1.41; M 2.13; C 2.81; G 1.52; T 3; P 1.73; R 2.21; D 2.25; K 2.39
S11: N 2.65; T 2.42; A 1.43; I 2.1; M 2.22; F 1.12; P 2.79; Q 1.18; G 1.03; Y 2.26; V 1.35; D 2.18; E 1.92
V10: T 1.3; L 2.21; R 1.07; E 1.81; N 1.94; W 1.4; S 1.83; C 1.98; I 2.13; G 1.1; A 3.08; Y 1.65; K 2.15; P 1.29; D 3.61; H 1.74
A13: Y 1.66; R 2.06; C 2.58; V 1.16; M 1.6; S 1.34; L 1.38; Q 1.59; E 2.34; T 2.38; H 2.42; P 1.37; W 2.07; I 2.26; F 2.2; K 2.55; N 1.69
V2: M 2.56; S 2.59; W 1.69; R 2.6; T 2.79; C 2.34; I 2.4; L 2.35; Y 2.08; D 2.77; A 2.96; H 3.64; E 2.21; Q 2.56; K 2.33; P 2.43
L3: M 1.41; S 2.98; G 3.68; W 1.4; I 1.23; A 1.83; P 3.4; T 1.55; R 2.17; D 3.35; Y 2.44
L6: I 1.67; F 1.9; K 2.17; M 1.76; C 2.38; G 1.42; Q 2.95; P 2.38; S 1.73; Y 2.28; A 2.11; H 1.66; T 2.32; E 3.9; N 2.07; W 2
T7: A 2.96; P 2.52; W 1.98; M 2.05; Q 2.6; K 3.26; L 2.95; F 1.66; H 1.17; E 2.81; C 2.05; V 3; Y 2.2; N 1.16; S 2.09; R 3; I 2.06; G 2.27; D 1.81
C12: E 3; K 2.73; Q 2.41; A 3.05; S 2.69; P 1.91; W 2.27; Y 1.65; F 1.78; V 2.48; N 3.93; I 1.71; L 2.75; T 2.97; M 1.74; G 3.18; H 4.25
